One block for each binder: values may come before it.
Experiments:
[1] = molecular target: T1, human CCR8 (human, UniProt P51685 1-355); test: flow cytometry, CHO-huCCR8.Gna15 cells, relative to rb.Ab5
T1 construct: the assay field says which; also called hCCR8; huCCR8
Method: (§1) Evaluation of CCR8 binding of the humanized variants with a hIgG1 Fc involved screening by flow cytometry, and comparing the relative EC₅₀ and MFI on human CCR8 CHO cells to the parental rabbit antibodies. Specifically, stable CHO-huCCR8.Gna15 cells were stained with various concentrations (starting from 10 ug/ml or 66.66 nM, 1:4 serial dilution for total 8 concentration points) of Ab4 and Ab5 variants at 4° C. for 30 minutes, then washed twice with FACS buffer (PBS with 0.5% BSA and 0.2 mM EDTA) and followed by staining with AF647-anti-hIgG at 4° C. for 15 min. Cells were washed twice with FACS buffer, and re-suspended in FACS buffer with propidium iodide (0.5 ug/ml) and analyzed with iQue3 (Sartorius).

[2] = molecular target: T1, human CCR8; test: as above; remark: listed apart in the source
Method: as §1

[3] = molecular target: T1, human CCR8; test: flow cytometry, CHO-huCCR8.Gna15 cells, relative to rb.Ab4
Method: as §1

[4] = molecular target: T1, human CCR8; test: as above; remark: listed apart in the source
Method: as §1

[5] = molecular target: T2, GST-FcgR3a.V158 (UniProt P08637 17-208, limits assumed); test: ELISA, GST-FcgR3a.V158 captured by anti-GST antibody
T2 construct: Captured by anti-GST antibody on ELISA plate; also called FcgR3a.V158 protein; Fcgamma RIIIa V158; not shown: GST tag
T2 sequence (P08637 17-208 F176V limits assumed): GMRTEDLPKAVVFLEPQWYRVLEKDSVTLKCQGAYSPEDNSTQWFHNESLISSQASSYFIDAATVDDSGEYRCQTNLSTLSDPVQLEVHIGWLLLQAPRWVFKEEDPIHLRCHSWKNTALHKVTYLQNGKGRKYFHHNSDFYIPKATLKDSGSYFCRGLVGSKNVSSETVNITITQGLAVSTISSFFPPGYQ
Method: (§2) The binding of fucosylated and afucosylated variants of hu.Ab5.H13L1 and hu.Ab4.H12L3 to both FcgR3a proteins by ELISA was studied. Briefly, an anti-GST antibody was coated on Nunc Maxisorp plates. GST-FcgR3a.V158 and GST-FcgR3a.F158 were captured at 500 ng/mL. Plates were then washed and then serially diluted anti-CCR8 antibodies starting at 100 ug/mL were incubated on the plate for 1 hour at room temperature. Plates were washed and bound antibody was detected by a HRP-conjugated anti-human IgG secondary antibody. Absorbance at 450 nm was measured by a plate reader. The data were fitted using a 4-parameter logistic curve in Softmax Pro.

[6] = molecular target: T1, human CCR8; test: cell-based or functional assay
[7] = molecular target: T2, GST-FcgR3a.V158; test: ELISA, GST-FcgR3a captured by anti-GST antibody
Method: as §2

[8] = molecular target: T3, GST-FcgR3a.F158 (UniProt P08637 17-208, limits assumed); test: ELISA, GST-FcgR3a captured by anti-GST antibody
T3 construct: Captured by anti-GST antibody on ELISA plate; also called FcgR3a.F158 protein; Fcgamma RIIIa F158; not shown: GST tag
T3 sequence (P08637 17-208 limits assumed): as the sequence (P08637 17-208 F176V limits assumed) above, with V160F counted along it
Method: as §2

[9] = molecular target: T4, cyno CCR8 (cynomolgus monkey, UniProt O97665 1-356 (rhesus entry)); test: whole-blood flow cytometry of cyno blood spiked ex vivo with a saturating concentration of the antibody, detected with labeled goat anti-human IgG on FoxP3+ T-reg cells; relative percentage of CCR8+ T-reg cells
T4 construct: also called cynomolgus monkey CCR8
T4 sequence (O97665 other isoform, or with tags, fused parts or gaps): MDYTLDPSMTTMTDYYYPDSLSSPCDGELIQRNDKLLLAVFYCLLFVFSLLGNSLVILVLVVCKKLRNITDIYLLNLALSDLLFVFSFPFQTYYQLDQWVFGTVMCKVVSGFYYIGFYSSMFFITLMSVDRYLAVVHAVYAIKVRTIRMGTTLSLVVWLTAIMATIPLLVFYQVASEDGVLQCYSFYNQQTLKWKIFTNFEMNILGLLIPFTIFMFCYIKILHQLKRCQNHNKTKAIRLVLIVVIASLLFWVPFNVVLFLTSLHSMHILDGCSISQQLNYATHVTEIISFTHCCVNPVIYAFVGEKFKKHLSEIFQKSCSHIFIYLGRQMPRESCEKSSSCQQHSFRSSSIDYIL
Method: Blood was collected from each of the animals before dosing (“Pre-study”), as well as on Day 1 at 0 hours (“Pre-dose”). Each of the animals were then administered a single dose of 10 mg/kg afucosylated anti-gD (Control Group), Afuc.hu.Ab5.H13L1 (Group 2) or Afuc.hu.Ab4.H12L3 (Group 3) via intravenous injection. Blood was then collected from the animals and subjected to the following treatment prior to flow cytometry analysis: (i) blood sample not spiked with either test CCR8 mAb (“unspiked”), (ii) blood sample further spiked with a saturating concentration of Afuc.hu.Ab5.H13L1, and (iii) blood sample further spiked with a saturating concentration of Afuc.hu.Ab4.H12L3. Each of the unspiked and spiked samples were subsequently treated with a labeled goat anti-human IgG antibody and analyzed by flow cytometry. […] Furthermore, flow cytometry of spiked blood also had very little effect on the total CCR8+T-reg cell count.
Anti-CCR8 antibodies Afuc.hu.Ab5.H13L1, Afuc.hu.Ab4.H12L3, and the control anti-gD were used for this study.

[10] = molecular target: T3, GST-FcgR3a.F158; test: ELISA, GST-FcgR3a.F158 captured by anti-GST antibody
Method: as §2

[11] = molecular target: T1, human CCR8; test: cell-based or functional assay; remark: listed apart in the source

B2: rb.Ab4 (antibody, V domains shown)
VH: QSVEESGGRLVTPGTPLTLTCTVSGFSLSNYAMIWVRQAPGEGLEWVGTISLGGYTYYANWAKGRFTISKTSTTVDLKISSPTTEDTATYFCARARWSTDSAIYTYAFDPWGPGTLVTVSS
VL: AYDMTQTPASVEVAVGGTVTIKCQASQSISSYLSWYQQKPGQRPELLIYKASTLASGVSSRFKGSGSGTQFTLTISDLECADAATYYCQQGYTSSNIDNIFGGGTEVVVK
notes: Rabbit variable regions; also called parental rabbit antibody Ab4
Relative EC50 [3]: 1 ratio
Relative MFI [3]: 1 ratio
Relative EC50 [4]: 1 ratio
Relative MFI [4]: 1 ratio

B3: Afuc.hu.Ab4.H12L3 (antibody, human IgG1, kappa)
heavy: not shown
light: DYQMTQSPSSLSASVGDRVTITCQASQSISSYLSWYQQKPGKAPKLLIYKASTLASGVPSRFSGSGSGTDFTLTISSLQPEDFATYYCQQGYTSSNIDNIFGGGTKVEIKRTVAAPSVFIFPPSDEQLKSGTASVVCLLNNFYPREAKVQWKVDNALQSGNSQESVTEQDSKDSTYSLSSTLTLSKADYEKHKVYACEVTHQGLSSPVTKSFNRGEC
modifications: afucosylated Fc N-glycan at position Asn299; between about 80% to about 95% afucosylation
notes: also called Afuc.Ab4.H12L3; afucosylated hu.Ab4.H12L3
EC50 [5]: 0.033 µg/mL
ADCP EC50, macrophages HR/FF (FIG. 14A) [6]: 0.025 nM
ADCP EC50, macrophages HR/FF (FIG. 14E) [6]: 0.035 nM
ADCP EC50, macrophages HR/VF (FIG. 14C) [6]: 0.017 nM
ADCP EC50, macrophages RR/FF (FIG. 14B) [6]: 0.12 nM
ADCP EC50, macrophages RR/VF (FIG. 14D) [6]: 0.079 nM
fold increase in binding potency versus fucosylated counterpart [7]: ~10 fold
fold increase in binding potency versus fucosylated counterpart [8]: ~10 fold
binding result [9]: binds
EC50 [10]: 0.08 µg/mL
ADCC EC50, NK-92 F158 cells (FIG. 11A) [11]: 0.006 nM
ADCC EC50, NK-92 F158 cells (FIG. 11C) [11]: 0.006 nM
ADCC EC50, NK-92 V158 cells (FIG. 11B) [11]: 0.011 nM

B4: hu.Ab4.H10L1 (antibody, human IgG1, kappa)
heavy: not shown
light: DYQMTQSPSSLSASVGDRVTITCQASQSISSYLSWYQQKPGKRPKLLIYKASTLASGVPSRFSGSGSGTDFTLTISSLQPEDFATYYCQQGYTSSNIDNIFGGGTKVEIKRTVAAPSVFIFPPSDEQLKSGTASVVCLLNNFYPREAKVQWKVDNALQSGNSQESVTEQDSKDSTYSLSSTLTLSKADYEKHKVYACEVTHQGLSSPVTKSFNRGEC
Relative EC50 [3]: 1.07 ratio
Relative MFI [3]: 0.77 ratio

B7: hu.Ab4.H11L1 (antibody, human IgG1, kappa, V domains shown)
VH: EVQLLESGGGLVQPGGSLRLSCAASGFSLSNYAMIWVRQAPGKGLEWVSTISLGGYTYYANWAKGRFTISRDNSKNTLYLQMNSLRAEDTAVYYCARARWSTDSAIYTYAFDPWGQGTLVTVSS
VL: DYQMTQSPSSLSASVGDRVTITCQASQSISSYLSWYQQKPGKRPKLLIYKASTLASGVPSRFSGSGSGTDFTLTISSLQPEDFATYYCQQGYTSSNIDNIFGGGTKVEIKR
Relative EC50 [3]: 0.88 ratio
Relative MFI [3]: 0.66 ratio

B9: hu.Ab5.H1L2 (antibody, human IgG1, kappa)
heavy: not shown
light: DIQMTQSPSSLSASVGDRVTITCQASENIANALAWYQQKPGKPPKFLIYGASNLASGVPSRFSGSGSGTDFTFTISSLQPEDIATYYCQQAYYGNSFVEGTFGGGTKVEIKRTVAAPSVFIFPPSDEQLKSGTASVVCLLNNFYPREAKVQWKVDNALQSGNSQESVTEQDSKDSTYSLSSTLTLSKADYEKHKVYACEVTHQGLSSPVTKSFNRGEC
Relative EC50 [2]: 1.4 ratio
Relative MFI [2]: 0.79 ratio

B11: hu.Ab5.H1L4 (antibody, human IgG1, kappa, V domains shown)
VH: EQQLLESGGGLVQPGGSLRLSCAVSGIDLSTYAMGWVRQAPGKGLEWIGLIHRSGRTYYATWAKGRFTISKDSSKTTVYLQMNSLRAEDTAVYFCTRSYPDYSATASIWGPGTTVTVSS
VL: DIQVTQSPSSLSASVGDRVTITCQASENIANALAWYQQKPGKPPKLLIYGASNLASGVPSRFSGSGSGTDFTFTISSLQPEDIATYYCQQAYYGNSFVEGTFGGGTKVEIKR
Relative EC50 [2]: 1.7 ratio
Relative MFI [2]: 0.51 ratio

B12: hu.Ab5.H1L3 (antibody, human IgG1, kappa, V domains shown)
VH: EQQLLESGGGLVQPGGSLRLSCAVSGIDLSTYAMGWVRQAPGKGLEWIGLIHRSGRTYYATWAKGRFTISKDSSKTTVYLQMNSLRAEDTAVYFCTRSYPDYSATASIWGPGTTVTVSS
VL: DIQVTQSPSSLSASVGDRVTITCQASENIANALAWYQQKPGKAPKFLIYGASNLASGVPSRFSGSGSGTDFTFTISSLQPEDIATYYCQQAYYGNSFVEGTFGGGTKVEIKR
Relative EC50 [2]: 1.5 ratio
Relative MFI [2]: 0.81 ratio

Continued, values first:

Relative EC50 [1]: 1 ratio
Relative MFI [1]: 1 ratio
Relative EC50 [2]: 1 ratio
Relative MFI [2]: 1 ratio
B1: rb.Ab5 (antibody, V domains shown)
VH: QSVEESGGRLVSPGTPLTLTCTVSGIDLSTYAMGWVRQAPGKGLEWIGLIHRSGRTYYATWAKGRFTISKTSSTTVDLKITSPTTEDTATYFCTRSYPDYSATASIWGPGTLVTVSS
VL: DIVVTQTPASVEAAVGGTVTIKCQASENIANALAWYQQKSGQPPMFLIYGASNLASGVSSRFKGSGSGTEFTLTISDLECADAAVYYCQCAYYGNSFVEGTFGGGTEVVVK
notes: Rabbit variable regions; also called parental rabbit antibody Ab5

Relative EC50 [4]: 1.06 ratio
Relative MFI [4]: 0.73 ratio
B5: hu.Ab4.H1L2 (antibody, human IgG1, kappa)
heavy: not shown
light: DIQMTQSPSSLSASVGDRVTITCQASQSISSYLSWYQQKPGKRPKLLIYKASTLASGVPSRFSGSGSGTDFTLTISSLQPEDFATYYCQQGYTSSNIDNIFGGGTKVEIKRTVAAPSVFIFPPSDEQLKSGTASVVCLLNNFYPREAKVQWKVDNALQSGNSQESVTEQDSKDSTYSLSSTLTLSKADYEKHKVYACEVTHQGLSSPVTKSFNRGEC

Relative EC50 [4]: 1.23 ratio
Relative MFI [4]: 1 ratio
B6: hu.Ab4.H1L3 (antibody, human IgG1, kappa)
heavy: not shown
light: DYQMTQSPSSLSASVGDRVTITCQASQSISSYLSWYQQKPGKAPKLLIYKASTLASGVPSRFSGSGSGTDFTLTISSLQPEDFATYYCQQGYTSSNIDNIFGGGTKVEIKRTVAAPSVFIFPPSDEQLKSGTASVVCLLNNFYPREAKVQWKVDNALQSGNSQESVTEQDSKDSTYSLSSTLTLSKADYEKHKVYACEVTHQGLSSPVTKSFNRGEC

Relative EC50 [4]: 1.04 ratio
Relative MFI [4]: 0.8 ratio
B8: hu.Ab4.H1L4 (antibody, human IgG1, kappa)
heavy: not shown
light: DIQMTQSPSSLSASVGDRVTITCQASQSISSYLSWYQQKPGKAPKLLIYKASTLASGVPSRFSGSGSGTDFTLTISSLQPEDFATYYCQQGYTSSNIDNIFGGGTKVEIKRTVAAPSVFIFPPSDEQLKSGTASVVCLLNNFYPREAKVQWKVDNALQSGNSQESVTEQDSKDSTYSLSSTLTLSKADYEKHKVYACEVTHQGLSSPVTKSFNRGEC

Relative EC50 [2]: 0.3 ratio
Relative MFI [2]: 0.31 ratio
B10: hu.Ab5.H1L5 (antibody, human IgG1, kappa, V domains shown)
VH: EQQLLESGGGLVQPGGSLRLSCAVSGIDLSTYAMGWVRQAPGKGLEWIGLIHRSGRTYYATWAKGRFTISKDSSKTTVYLQMNSLRAEDTAVYFCTRSYPDYSATASIWGPGTTVTVSS
VL: DIQMTQSPSSLSASVGDRVTITCQASENIANALAWYQQKPGKAPKLLIYGASNLASGVPSRFSGSGSGTDFTFTISSLQPEDIATYYCQQAYYGNSFVEGTFGGGTKVEIKR

Source: US20230049152A1 (Genentech, published 2023)
